# Assay results: article PMC12171399
# Key:
# [1] = target: secreted form of VEGF-A-HisTag expressed in Expi293 cells (mouse) (UniProt Q00731); assay: SDS-PAGE; VEGF-A-HisTag from Expi293 culture media, purified on a heparin affinity column
# [2] = target: non-tagged mature mouse VEGF-A (188 amino acids form), refolded from TAPS-VEGF-A (mouse); assay: SDS-PAGE under reducing and non-reducing conditions; purified protein; disulfide-linked homodimer told from monomer by comparing migration under reducing or non-reducing conditions; 5%-20% gradient gel; refolded samples after cation-exchange chromatography
# [3] = target: VEGF-A-HisTag refolded from inclusion bodies of BL21(DE3) (mouse); assay: as above
substance,measurement,setting,value
secreted form of VEGF-A-HisTag expressed in Expi293 cells (from UniProt Q00731 1-392) (ligand),stoichiometry N,[1],2
"non-tagged mature mouse VEGF-A (188 amino acids form), refolded from TAPS-VEGF-A (ligand)",stoichiometry N,[2],2
VEGF-A-HisTag refolded from inclusion bodies of BL21(DE3) (ligand),stoichiometry N,[3],2
